For 14 molecules, Kd, koff and kon results are on record in patent US20120034160A1 (AbbVie / Abbott, published 2012).

To fix the notation:
T1: Recombinant Human IL-17 (human, UniProt Q16552 20-155, limits assumed)
T1 construct: bought reagent
T1 sequence (looked up): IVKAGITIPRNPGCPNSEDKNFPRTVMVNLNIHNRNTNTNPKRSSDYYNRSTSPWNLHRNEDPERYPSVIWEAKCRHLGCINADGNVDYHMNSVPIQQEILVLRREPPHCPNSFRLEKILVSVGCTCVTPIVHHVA

B1: DVD1624 (bispecific antibody, human IgG1, kappa)
heavy: not shown
light: DIQMTQSPSSLSASVGDRVTITCRASSGIISYIDWFQQKPGKAPKRLIYATFDLASGVPSRFSGSGSGTDYTLTISSLQPEDFATYYCRQVGSYPETFGQGTKLEIKRTVAAPDTQVTQSPSSLSASVGDRVTITCITSTDIDVDMNWYQQKPGKPPKLLISQGNTLRPGVPSRFSSSGSGTDFTFTISSLQPEDFATYYCLQSDNLPLTFGQGTKLEIKRTVAAPSVFIFPPSDEQLKSGTASVVCLLNNFYPREAKVQWKVDNALQSGNSQESVTEQDSKDSTYSLSSTLTLSKADYEKHKVYACEVTHQGLSSPVTKSFNRGEC
notes: DVD-Ig, outer AB273, inner AB270, linker set 3; V1 wt hIgG1, V2 kappa; also called DVD1624H; DVD1624L
B2: DVD1628 (bispecific antibody, human IgG1, kappa)
heavy: not shown
light: B1 light with D114E, Q116T
notes: DVD-Ig, outer AB273, inner AB272, linker set 3; V1 wt hIgG1, V2 kappa; also called DVD1628H; DVD1628L
B3: DVD1616 (bispecific antibody, human IgG1, kappa)
heavy: not shown
light: EIVLTQSPDFQSVTPKEKVTITCRASQNIGSELHWYQQKPDQSPKLLIKYASHSISGVPSRFSGSGSGTDFTLTINGLEAEDAATYYCHQSDTLPHTFGQGTKVDIKRTVAAPSVFIFPPDTVVTQSPAFLSVTPGEKVTITCITSTDIDVDMNWYQQKPDQPPKLLISQGNTLRPGVPSRFSSSGSGTDFTFTISSLEAEDAATYYCLQSDNLPLTFGQGTKLEIKRTVAAPSVFIFPPSDEQLKSGTASVVCLLNNFYPREAKVQWKVDNALQSGNSQESVTEQDSKDSTYSLSSTLTLSKADYEKHKVYACEVTHQGLSSPVTKSFNRGEC
notes: DVD-Ig, outer AB275, inner AB271, linker set 2; V1 wt hIgG1, V2 kappa; also called DVD1616H; DVD1616L
B4: DVD1614 (bispecific antibody, human IgG1, kappa)
heavy: not shown
light: EIVLTQSPDFQSVTPKEKVTITCRASQNIGSELHWYQQKPDQSPKLLIKYASHSISGVPSRFSGSGSGTDFTLTINGLEAEDAATYYCHQSDTLPHTFGQGTKVDIKRTVAAPSVFIFPPDTQVTQSPSSLSASVGDRVTITCITSTDIDVDMNWYQQKPGKPPKLLISQGNTLRPGVPSRFSSSGSGTDFTFTISSLQPEDFATYYCLQSDNLPLTFGQGTKLEIKRTVAAPSVFIFPPSDEQLKSGTASVVCLLNNFYPREAKVQWKVDNALQSGNSQESVTEQDSKDSTYSLSSTLTLSKADYEKHKVYACEVTHQGLSSPVTKSFNRGEC
notes: DVD-Ig, outer AB275, inner AB270, linker set 2; V1 wt hIgG1, V2 kappa; also called DVD1614H; DVD1614L
B5: DVD1618 (bispecific antibody, human IgG1, kappa)
heavy: not shown
light: B4 light with D121E, Q123T
notes: DVD-Ig, outer AB275, inner AB272, linker set 2; V1 wt hIgG1, V2 kappa; also called DVD1618H; DVD1618L
B6: DVD1626 (bispecific antibody, human IgG1, kappa)
heavy: not shown
light: DIQMTQSPSSLSASVGDRVTITCRASSGIISYIDWFQQKPGKAPKRLIYATFDLASGVPSRFSGSGSGTDYTLTISSLQPEDFATYYCRQVGSYPETFGQGTKLEIKRTVAAPDTVVTQSPAFLSVTPGEKVTITCITSTDIDVDMNWYQQKPDQPPKLLISQGNTLRPGVPSRFSSSGSGTDFTFTISSLEAEDAATYYCLQSDNLPLTFGQGTKLEIKRTVAAPSVFIFPPSDEQLKSGTASVVCLLNNFYPREAKVQWKVDNALQSGNSQESVTEQDSKDSTYSLSSTLTLSKADYEKHKVYACEVTHQGLSSPVTKSFNRGEC
notes: DVD-Ig, outer AB273, inner AB271, linker set 3; V1 wt hIgG1, V2 kappa; also called DVD1626H; DVD1626L
B7: DVD1620 (bispecific antibody, human IgG1, kappa)
heavy: not shown
light: DIQMTQSPSSLSASVGDRVTITCRASSGIISYIDWFQQKPGKAPKRLIYATFDLASGVPSRFSGSGSGTDYTLTISSLQPEDFATYYCRQVGSYPETFGQGTKLEIKRTVAAPDIQMTQSPSSLSASVGDRVTITCRASGNIHNYLTWYQQTPGKAPKLLIYNAKTLADGVPSRFSGSGSGTDYTFTISSLQPEDIATYYCQHFWSIPYTFGQGTKLQITRTVAAPSVFIFPPSDEQLKSGTASVVCLLNNFYPREAKVQWKVDNALQSGNSQESVTEQDSKDSTYSLSSTLTLSKADYEKHKVYACEVTHQGLSSPVTKSFNRGEC
notes: V1 wt hIgG1, V2 kappa; also called DVD1620H; DVD1620L
B8: DVD1622 (bispecific antibody, human IgG1, kappa)
heavy: not shown
light: B7 light
notes: V1 wt hIgG1, V2 kappa; also called DVD1622H; DVD1622L
B9: DVD1630 (bispecific antibody, human IgG1, kappa)
heavy: not shown
light: EIVLTQSPDFQSVTPKEKVTITCRASQDIGSELHWYQQKPDQPPKLLIKYASHSTSGVPSRFSGSGSGTDFTLTINGLEAEDAGTYYCHQTDSLPYTFGPGTKVDIKRTVAAPDIQMTQSPSSLSASVGDRVTITCRASGNIHNYLTWYQQTPGKAPKLLIYNAKTLADGVPSRFSGSGSGTDYTFTISSLQPEDIATYYCQHFWSIPYTFGQGTKLQITRTVAAPSVFIFPPSDEQLKSGTASVVCLLNNFYPREAKVQWKVDNALQSGNSQESVTEQDSKDSTYSLSSTLTLSKADYEKHKVYACEVTHQGLSSPVTKSFNRGEC
notes: V1 wt hIgG1, V2 kappa; also called DVD1630H; DVD1630L
B10: DVD1632 (bispecific antibody, human IgG1, kappa)
heavy: not shown
light: B9 light
notes: V1 wt hIgG1, V2 kappa; also called DVD1632H; DVD1632L
B11: DVD1272 (bispecific antibody, human IgG1, kappa)
heavy: not shown
light: DIQMTQSPSSLSASVGDRVTITCRASGNIHNYLTWYQQTPGKAPKLLIYNAKTLADGVPSRFSGSGSGTDYTFTISSLQPEDIATYYCQHFWSIPYTFGQGTKLQITRTVAAPEIVLTQSPDFQSVTPKEKVTITCRASQDIGSELHWYQQKPDQPPKLLIKYASHSTSGVPSRFSGSGSGTDFTLTINGLEAEDAGTYYCHQTDSLPYTFGPGTKVDIKRTVAAPSVFIFPPSDEQLKSGTASVVCLLNNFYPREAKVQWKVDNALQSGNSQESVTEQDSKDSTYSLSSTLTLSKADYEKHKVYACEVTHQGLSSPVTKSFNRGEC
notes: V1 wt hIgG1, V2 kappa; also called DVD1272H; DVD1272L
B12: DVD1274 (bispecific antibody, human IgG1, kappa)
heavy: not shown
light: B11 light
notes: V1 wt hIgG1, V2 kappa; also called DVD1274H; DVD1274L
B13: DVD1266 (bispecific antibody, human IgG1, kappa)
heavy: not shown
light: DTQVTQSPSSLSASVGDRVTITCITSTDIDVDMNWYQQKPGKPPKLLISQGNTLRPGVPSRFSSSGSGTDFTFTISSLQPEDFATYYCLQSDNLPLTFGQGTKLEIKRTVAAPDIQMTQSPSSLSASVGDRVTITCRASSGIISYIDWFQQKPGKAPKRLIYATFDLASGVPSRFSGSGSGTDYTLTISSLQPEDFATYYCRQVGSYPETFGQGTKLEIKRTVAAPSVFIFPPSDEQLKSGTASVVCLLNNFYPREAKVQWKVDNALQSGNSQESVTEQDSKDSTYSLSSTLTLSKADYEKHKVYACEVTHQGLSSPVTKSFNRGEC
notes: DVD-Ig, outer AB270, inner AB273, linker set 1; V1 wt hIgG1, V2 kappa; also called DVD1266H; DVD1266L
B14: DVD1270 (bispecific antibody, human IgG1, kappa)
heavy: not shown
light: B13 light with D1E, Q3T
notes: DVD-Ig, outer AB272, inner AB273, linker set 1; V1 wt hIgG1, V2 kappa; also called DVD1270H; DVD1270L

Where a chain is given by its changes, count along the chain named.

The first assay concerns the target T2, Recombinant Human IL-1β (human, UniProt P01584 117-269).
T2 construct: bought reagent; also called IL-1B
Description: Biacore SPR; C-terminal VD. In short, it runs like this: (§1)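 SPR, 25° C, HBS-EP (10 mM HEPES pH 7.4, 150 mM NaCl, 3 mM EDTA, 0.005% P20). Capture via anti-mouse IgG Fcγ chip; analyte 10−200 nM at 25 μl/min. 1:1 Langmuir global fit; KD = koff/kon.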
A general note: In SPR one partner is held on a chip, and binding of the other changes the refractive index at the surface.
Take B1: the Kd (commonly a measure of binding affinity in units of concentration) came to 0.84 nM; the koff (in general, the rate constant with which the complex falls apart) came out at 0.00046 s⁻¹; the kon (as a rule, the second-order rate constant of association) stood at 550000 M⁻¹ s⁻¹.
Taken in the same sequence, the figures for B2 were 1 nM, 0.00049 s⁻¹ and 490000 M⁻¹ s⁻¹.
In the same order, the values of B3 are 0.22 nM, 0.00036 s⁻¹ and 1.6e+06 M⁻¹ s⁻¹.
Taken in the same sequence, the figures for B4 were 0.18 nM, 0.0003 s⁻¹ and 1.7e+06 M⁻¹ s⁻¹.
With B5, the Kd is 0.26 nM, the koff was found to be 0.00062 s⁻¹ and the kon is 2.4e+06 M⁻¹ s⁻¹.
In the same order, the values of B6 are 1 nM, 0.00047 s⁻¹ and 470000 M⁻¹ s⁻¹.
Take B7: the Kd stood at 0.29 nM, the koff amounted to 9.4e-05 s⁻¹ and the kon stood at 330000 M⁻¹ s⁻¹.
In the same order, the values of B8 are 0.16 nM, 0.00023 s⁻¹ and 1.5e+06 M⁻¹ s⁻¹.
As to B9, the Kd was 0.45 nM, the koff turned out to be 7.6e-05 s⁻¹ and the kon was 170000 M⁻¹ s⁻¹.
B10: the Kd was 0.42 nM, the off-rate constant (koff) was found to be 4.7e-05 s⁻¹ and the kon stood at 110000 M⁻¹ s⁻¹.

The target in the next assay is T2, Recombinant Human IL-1β. The experiment in a line: Biacore SPR; N-terminal VD. The gist of the method: as §1
As to B11, the Kd came out at 0.03 nM, the koff came out at 4.5e-05 s⁻¹ and the association rate constant (kon) was 1.5e+06 M⁻¹ s⁻¹.
Taken in the same sequence, the figures for B12 were 0.031 nM, 4e-05 s⁻¹ and 1.3e+06 M⁻¹ s⁻¹.
Taken in the same sequence, the figures for B13 were 0.077 nM, 0.00046 s⁻¹ and 6e+06 M⁻¹ s⁻¹.
Taken in the same sequence, the figures for B14 were 0.1 nM, 0.00054 s⁻¹ and 5.3e+06 M⁻¹ s⁻¹.

The target of a further assay is T1, Recombinant Human IL-17. Description: Biacore SPR; N-terminal VD. In short, it runs like this: as §1
For the molecule B1, the Kd was determined as 0.011 nM, the koff was 4.1e-05 s⁻¹ and the kon was found to be 3.7e+06 M⁻¹ s⁻¹.
Taken in the same sequence, the figures for B2 were 0.0055 nM, 2.2e-05 s⁻¹ and 4e+06 M⁻¹ s⁻¹.
Taken in the same sequence, the figures for B3 were 0.015 nM, 4.9e-05 s⁻¹ and 3.3e+06 M⁻¹ s⁻¹.
In the same order, the values of B4 are 0.014 nM, 4.8e-05 s⁻¹ and 3.5e+06 M⁻¹ s⁻¹.
As to B5, the Kd worked out at 0.019 nM, the koff was 6.3e-05 s⁻¹ and the kon is 3.2e+06 M⁻¹ s⁻¹.
In the same order, the values of B6 are 0.0034 nM, 1.6e-05 s⁻¹ and 4.8e+06 M⁻¹ s⁻¹.
Taken in the same sequence, the figures for B7 were 0.0019 nM, 7.1e-06 s⁻¹ and 3.8e+06 M⁻¹ s⁻¹.
In the same order, the values of B8 are 0.00046 nM, 1.7e-06 s⁻¹ and 3.7e+06 M⁻¹ s⁻¹.
Take B9: the equilibrium dissociation constant (Kd) was found to be 0.0045 nM, the koff came to 1.6e-05 s⁻¹ and the kon was determined as 3.4e+06 M⁻¹ s⁻¹.
Turning to B10, the dissociation constant Kd was 0.005 nM, the koff worked out at 1.6e-05 s⁻¹ and the kon is 3.2e+06 M⁻¹ s⁻¹.
